PMC4612562, “Coronin 2A (CRN5) expression is associated with colorectal adenoma-adenocarcinoma sequence and oncogenic signalling” (BMC Cancer, 2015)

Biological target: T1, His6-PRMT5 (UniProt O14744 1-637)
T1 construct: PRMT5, cDNA AF167572.1 in pReceiver-B01 (GeneCopoeia EX-V1247-B01); also called protein arginine N-methyltransferase 5; source: E. coli BL21, purified (Ni-beads)
Experiment: pull-down; GST-CRN5 on glutathione-sepharose beads as bait; TEV-cleaved MAPK14 or purified His6-PRMT5 as prey; 50 mM Tris/HCl pH 8.0, 150 mM NaCl, 0.5 % NP-40; three washes; SDS-PAGE and immunoblot
Settings: both partners purified

T1 sequence (O14744 whole entry): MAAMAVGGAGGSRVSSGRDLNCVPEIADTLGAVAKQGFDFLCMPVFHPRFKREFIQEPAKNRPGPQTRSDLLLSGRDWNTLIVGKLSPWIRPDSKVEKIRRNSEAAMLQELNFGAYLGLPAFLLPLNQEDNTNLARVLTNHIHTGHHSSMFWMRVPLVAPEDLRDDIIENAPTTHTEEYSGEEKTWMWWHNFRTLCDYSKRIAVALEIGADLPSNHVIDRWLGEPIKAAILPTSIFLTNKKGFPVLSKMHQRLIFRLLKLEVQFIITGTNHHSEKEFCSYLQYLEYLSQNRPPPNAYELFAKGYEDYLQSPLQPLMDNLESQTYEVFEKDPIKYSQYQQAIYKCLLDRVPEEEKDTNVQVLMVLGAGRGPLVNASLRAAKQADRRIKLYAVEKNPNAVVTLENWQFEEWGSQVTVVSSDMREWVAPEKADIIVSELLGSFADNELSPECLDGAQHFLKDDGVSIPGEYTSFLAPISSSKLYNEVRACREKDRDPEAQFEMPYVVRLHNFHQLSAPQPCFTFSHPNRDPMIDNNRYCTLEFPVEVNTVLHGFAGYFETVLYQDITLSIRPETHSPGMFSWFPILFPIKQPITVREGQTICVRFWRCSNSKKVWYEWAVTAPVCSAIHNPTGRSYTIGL

binding result: binds
B1: GST-CRN5 (coronin 2A) (natural protein, human, UniProt Q92828 1-525, looked up)
chain: MSWHPQYRSSKFRHVFGKPASKENCYDSVPITRSVHDNHFCAVNPHFIAVVTECAGGGAFLVIPLHQTGKLDPHYPKVCGHRGNVLDVKWNPFDDFEIASCSEDATIKIWSIPKQLLTRNLTAYRKELVGHARRVGLVEWHPTAANILFSAGYDYKVMIWNLDTKESVITSPMSTISCHQDVILSMSFNTNGSLLATTCKDRKIRVIDPRAGTVLQEASYKGHRASKVLFLGNLKKLMSTGTSRWNNRQVALWDQDNLSVPLMEEDLDGSSGVLFPFYDADTSMLYVVGKGDGNIRYYEVSADKPHLSYLTEYRSYNPQKGIGVMPKRGLDVSSCEIFRFYKLITTKSLIEPISMIVPRRSESYQEDIYPPTAGAQPSLTAQEWLSGMNRDPILVSLRPGSELLRPHPLPAERPIFNSMAPASPRLLNQTEKLAAEDGWRSSSLLEEKMPRWAAEHRLEEKKTWLTNGFDVFECPPPKTENELLQMFYRQQEEIRRLRELLTQREVQAKQLELEIKNLRMGSEQL
notes: coronin 2A (CRN5), human cDNA NM_052820 (origene SC109892) cloned into pGEX-4T-1; pGEX-4T-1 normally places GST at the N-terminus (surmised); also called coronin 4; ClipinB; source: E. coli BL21, purified on glutathione beads (pull-down); E. coli lysate captured on CRN5 mAb K77-578-1 / Protein G microbeads (co-immunoprecipitation)
